Measured values published in publication PMC9482650, “Quantitative fragmentomics allow affinity mapping of interactomes” (Nature Communications, 2022).

T1: APBA1_1, Q02410
T1 sequence (Q02410 651-752, limits assumed, looked up): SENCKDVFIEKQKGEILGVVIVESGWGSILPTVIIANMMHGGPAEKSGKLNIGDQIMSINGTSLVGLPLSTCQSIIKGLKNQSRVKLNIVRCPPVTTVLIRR

T2: APBA1_2, Q02410
T2 sequence (Q02410 742-832, limits assumed, looked up): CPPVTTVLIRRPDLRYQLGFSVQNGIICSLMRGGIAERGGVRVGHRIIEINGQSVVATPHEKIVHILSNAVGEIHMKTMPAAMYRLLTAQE

T3: APBA3_1, O96018
T3 sequence (O96018 389-490, limits assumed, looked up): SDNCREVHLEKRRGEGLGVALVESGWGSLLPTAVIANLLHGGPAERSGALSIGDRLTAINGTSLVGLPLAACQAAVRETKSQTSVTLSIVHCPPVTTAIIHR

T4: DLG3_1, Q92796
T4 sequence (Q92796 125-227, limits assumed, looked up): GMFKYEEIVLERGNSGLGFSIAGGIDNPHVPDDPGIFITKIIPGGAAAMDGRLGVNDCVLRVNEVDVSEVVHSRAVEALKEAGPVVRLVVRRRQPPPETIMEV

T5: DLG3_2, Q92796
T5 sequence (Q92796 221-321, limits assumed, looked up): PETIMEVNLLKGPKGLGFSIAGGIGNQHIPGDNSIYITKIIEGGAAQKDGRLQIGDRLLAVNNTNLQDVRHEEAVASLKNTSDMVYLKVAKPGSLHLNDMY

T6: GRIP1_2, Q9Y3R0
T6 sequence (Q9Y3R0 145-248, limits assumed, looked up): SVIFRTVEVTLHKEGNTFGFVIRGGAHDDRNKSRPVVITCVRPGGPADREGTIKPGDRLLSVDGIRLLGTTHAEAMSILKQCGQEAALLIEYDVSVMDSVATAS

T7: LNX2_2, Q8N448
T7 sequence (Q8N448 334-432, limits assumed, looked up): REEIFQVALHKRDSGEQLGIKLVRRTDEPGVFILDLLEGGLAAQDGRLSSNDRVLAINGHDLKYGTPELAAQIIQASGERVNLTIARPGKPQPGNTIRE

T8: MPDZ_5, O75970
T8 sequence (O75970 695-796, limits assumed, looked up): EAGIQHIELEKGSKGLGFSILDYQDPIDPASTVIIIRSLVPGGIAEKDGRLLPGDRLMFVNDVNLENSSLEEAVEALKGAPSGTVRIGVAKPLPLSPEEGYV

T9: MPP2, Q14168
T9 sequence (Q14168 180-250, limits assumed, looked up): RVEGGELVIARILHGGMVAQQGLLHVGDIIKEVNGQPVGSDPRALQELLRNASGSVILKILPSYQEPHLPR

T10: RADIL, Q96JH8
T10 sequence (Q96JH8 971-1071, limits assumed, looked up): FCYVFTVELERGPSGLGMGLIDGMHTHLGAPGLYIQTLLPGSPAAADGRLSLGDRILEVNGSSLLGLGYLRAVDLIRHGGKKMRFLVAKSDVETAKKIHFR

T11: SNTB1, Q13884
T11 sequence (Q13884 107-205, limits assumed, looked up): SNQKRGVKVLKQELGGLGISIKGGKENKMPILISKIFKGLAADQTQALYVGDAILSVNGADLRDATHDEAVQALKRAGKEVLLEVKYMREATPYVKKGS

T12: TX1BP3, O14907
T12 sequence (O14907 10-122, limits assumed, looked up): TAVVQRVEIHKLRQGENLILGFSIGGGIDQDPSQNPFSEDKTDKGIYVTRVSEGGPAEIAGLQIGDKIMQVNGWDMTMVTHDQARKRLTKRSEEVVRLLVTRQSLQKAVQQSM


Legend:
Assay in all cases: holdup assay
Parameters in all cases: key: below the threshold = too weak to quantify, mostly under pKd 3.1 to 4
Conditions in all cases: plain residues with an end cap or a label only (N-terminal biotin on a linker: ado-ado)
APBA1_1, Q02410 = target: T1, APBA1_1, Q02410
APBA1_2, Q02410 = target: T2, APBA1_2, Q02410
APBA3_1, O96018 = target: T3, APBA3_1, O96018
ARHGEF12, Q9NZN5-2 = target: ARHGEF12, Q9NZN5-2
Sequence of ARHGEF12, Q9NZN5-2 (Q9NZN5 other isoform, or with tags, fused parts or gaps): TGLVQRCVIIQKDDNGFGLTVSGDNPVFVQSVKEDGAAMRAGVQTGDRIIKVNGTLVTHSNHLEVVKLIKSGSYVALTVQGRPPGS

CASK, O14936 = target: CASK, O14936
Sequence of CASK, O14936 (O14936 487-570): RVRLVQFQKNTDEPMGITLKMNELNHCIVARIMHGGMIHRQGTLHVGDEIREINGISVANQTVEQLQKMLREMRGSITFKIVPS

DLG1_2, Q12959 = target: DLG1_2, Q12959
Sequence of DLG1_2, Q12959 (Q12959 314-412): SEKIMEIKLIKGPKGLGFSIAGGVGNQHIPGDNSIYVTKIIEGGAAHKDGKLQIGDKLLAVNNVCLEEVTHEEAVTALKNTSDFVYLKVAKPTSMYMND

DLG2_2, Q15700 = target: DLG2_2, Q15700
Sequence of DLG2_2, Q15700 (Q15700 189-283): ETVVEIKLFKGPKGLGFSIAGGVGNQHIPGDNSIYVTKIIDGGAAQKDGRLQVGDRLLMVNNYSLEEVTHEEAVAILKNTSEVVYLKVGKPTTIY

DLG3_1, Q92796 = target: T4, DLG3_1, Q92796
DLG3_2, Q92796 = target: T5, DLG3_2, Q92796
DLG4_3, P78352 = target: DLG4_3, P78352
Sequence of DLG4_3, P78352 (P78352 306-403): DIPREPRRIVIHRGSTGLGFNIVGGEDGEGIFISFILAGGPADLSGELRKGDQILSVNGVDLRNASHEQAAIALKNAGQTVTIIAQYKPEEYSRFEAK

GRIP1_2, Q9Y3R0 = target: T6, GRIP1_2, Q9Y3R0
Inadl_10, Q8NI35 = target: Inadl_10, Q8NI35
Sequence of Inadl_10, Q8NI35 (Q8NI35 1673-1763): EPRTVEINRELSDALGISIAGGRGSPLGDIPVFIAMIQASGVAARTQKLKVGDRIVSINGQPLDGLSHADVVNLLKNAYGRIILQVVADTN

LAP2, Q96RT1 = target: LAP2, Q96RT1
Sequence of LAP2, Q96RT1 (Q96RT1 other isoform, or with tags, fused parts or gaps): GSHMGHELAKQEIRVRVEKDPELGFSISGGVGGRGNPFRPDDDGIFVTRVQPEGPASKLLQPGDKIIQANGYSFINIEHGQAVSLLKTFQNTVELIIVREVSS

LNX1_2, Q8TBB1 = target: LNX1_2, Q8TBB1
Sequence of LNX1_2, Q8TBB1 (Q8TBB1 371-470): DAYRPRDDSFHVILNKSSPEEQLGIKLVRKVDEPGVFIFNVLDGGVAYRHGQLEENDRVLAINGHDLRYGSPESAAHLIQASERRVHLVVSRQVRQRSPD

LNX2_2, Q8N448 = target: T7, LNX2_2, Q8N448
MAGI2_4, Q86UL8 = target: MAGI2_4, Q86UL8
Sequence of MAGI2_4, Q86UL8 (Q86UL8 772-865): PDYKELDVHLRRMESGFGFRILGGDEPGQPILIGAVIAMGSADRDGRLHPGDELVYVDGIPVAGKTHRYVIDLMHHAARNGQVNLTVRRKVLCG

MAGI3_2, Q5TCQ9 = target: MAGI3_2, Q5TCQ9
Sequence of MAGI3_2, Q5TCQ9 (Q5TCQ9 398-503): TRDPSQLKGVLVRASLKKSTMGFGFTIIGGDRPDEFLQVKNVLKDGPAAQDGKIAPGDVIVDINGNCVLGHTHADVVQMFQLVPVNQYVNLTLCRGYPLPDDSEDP

MPDZ_5, O75970 = target: T8, MPDZ_5, O75970
MPP2, Q14168 = target: T9, MPP2, Q14168
PDZRN4_1, Q6ZMN7 = target: PDZRN4_1, Q6ZMN7
Sequence of PDZRN4_1, Q6ZMN7 (Q6ZMN7 213-318): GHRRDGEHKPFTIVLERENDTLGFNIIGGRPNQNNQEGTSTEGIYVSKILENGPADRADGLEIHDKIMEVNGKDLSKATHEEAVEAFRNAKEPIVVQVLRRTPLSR

PICK1, Q9NRD5 = target: PICK1, Q9NRD5
Sequence of PICK1, Q9NRD5 (Q9NRD5 17-115): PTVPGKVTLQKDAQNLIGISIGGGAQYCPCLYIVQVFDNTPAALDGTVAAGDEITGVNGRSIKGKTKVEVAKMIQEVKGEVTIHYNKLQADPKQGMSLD

RADIL, Q96JH8 = target: T10, RADIL, Q96JH8
SNTB1, Q13884 = target: T11, SNTB1, Q13884
TJP1_2, Q07157 = target: TJP1_2, Q07157
Sequence of TJP1_2, Q07157 (Q07157 181-274): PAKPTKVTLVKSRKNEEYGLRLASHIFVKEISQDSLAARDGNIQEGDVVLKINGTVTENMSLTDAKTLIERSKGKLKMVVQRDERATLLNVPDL

TJP2_1, Q9UDY2 = target: TJP2_1, Q9UDY2
Sequence of TJP2_1, Q9UDY2 (Q9UDY2 24-128): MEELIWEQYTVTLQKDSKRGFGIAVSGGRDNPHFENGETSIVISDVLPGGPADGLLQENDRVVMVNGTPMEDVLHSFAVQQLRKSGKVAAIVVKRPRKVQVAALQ

TX1BP3, O14907 = target: T12, TX1BP3, O14907

Binder | pKd (APBA1_1, Q02410) | pKd (APBA1_2, Q02410) | pKd (APBA3_1, O96018) | pKd (ARHGEF12, Q9NZN5-2) | pKd (CASK, O14936) | pKd (DLG1_2, Q12959) | pKd (DLG2_2, Q15700) | pKd (DLG3_1, Q92796) | pKd (DLG3_2, Q92796) | pKd (DLG4_3, P78352) | pKd (GRIP1_2, Q9Y3R0) | pKd (Inadl_10, Q8NI35) | pKd (LAP2, Q96RT1) | pKd (LNX1_2, Q8TBB1) | pKd (LNX2_2, Q8N448) | pKd (MAGI2_4, Q86UL8) | pKd (MAGI3_2, Q5TCQ9) | pKd (MPDZ_5, O75970) | pKd (MPP2, Q14168) | pKd (PDZRN4_1, Q6ZMN7) | also measured
PKSNSSKEYV [CLDN7, O95471] | below the threshold | 3.69 | below the threshold | below the threshold | below the threshold | below the threshold | below the threshold | below the threshold | below the threshold | below the threshold | below the threshold | below the threshold | below the threshold | below the threshold | below the threshold | below the threshold | below the threshold | below the threshold | below the threshold | below the threshold | pKd (PICK1, Q9NRD5): below the threshold; pKd (RADIL, Q96JH8): 4.07; pKd (SNTB1, Q13884): below the threshold; pKd (TJP1_2, Q07157): below the threshold; pKd (TJP2_1, Q9UDY2): 4.28; pKd (TX1BP3, O14907): below the threshold
HLSTRQGTCV [ATRNL1, Q5VV63] | below the threshold | 4.62 | below the threshold | 3.51 | below the threshold | 4.55 | 4.21 | 3.84 | 4.22 | 3.87 | below the threshold | below the threshold | 3.94 | 3.71 | 5.01 | 4.97 | 5.16 | 3.66 | below the threshold | 3.76 | pKd (PICK1, Q9NRD5): below the threshold; pKd (RADIL, Q96JH8): 4.28; pKd (SNTB1, Q13884): 3.99; pKd (TJP1_2, Q07157): below the threshold; pKd (TJP2_1, Q9UDY2): 4.35; pKd (TX1BP3, O14907): below the threshold
QRYPGNQTTC [CCL24, O00175] | below the threshold | below the threshold | below the threshold | 4.15 | below the threshold | below the threshold | 3.51 | below the threshold | 4.26 | below the threshold | below the threshold | below the threshold | below the threshold | 3.49 | 3.58 | below the threshold | below the threshold | below the threshold | below the threshold | below the threshold | pKd (PICK1, Q9NRD5): below the threshold; pKd (RADIL, Q96JH8): below the threshold; pKd (SNTB1, Q13884): 3.6; pKd (TJP1_2, Q07157): below the threshold; pKd (TJP2_1, Q9UDY2): below the threshold; pKd (TX1BP3, O14907): below the threshold

Further lines, with some results ahead:

pKd (APBA1_1, Q02410) | pKd (APBA1_2, Q02410) | pKd (APBA3_1, O96018) | pKd (ARHGEF12, Q9NZN5-2) | pKd (CASK, O14936) | pKd (DLG1_2, Q12959) | pKd (DLG2_2, Q15700) | pKd (DLG3_1, Q92796) | pKd (DLG3_2, Q92796) | pKd (DLG4_3, P78352) | pKd (GRIP1_2, Q9Y3R0) | pKd (Inadl_10, Q8NI35) | pKd (LAP2, Q96RT1) | pKd (LNX1_2, Q8TBB1) | pKd (LNX2_2, Q8N448) | pKd (MAGI2_4, Q86UL8) | pKd (MAGI3_2, Q5TCQ9) | pKd (MPDZ_5, O75970) | pKd (MPP2, Q14168) | pKd (PDZRN4_1, Q6ZMN7) | Binder | also measured
below the threshold | 3.56 | below the threshold | 3.92 | below the threshold | 4.06 | 3.86 | below the threshold | 3.86 | below the threshold | below the threshold | below the threshold | below the threshold | below the threshold | 4.32 | 3.63 | 4.46 | below the threshold | below the threshold | below the threshold | KLQNPNQSVV [TYRP1, P17643] | pKd (PICK1, Q9NRD5): 4.19; pKd (RADIL, Q96JH8): 4.05; pKd (SNTB1, Q13884): 3.72; pKd (TJP1_2, Q07157): below the threshold; pKd (TJP2_1, Q9UDY2): below the threshold; pKd (TX1BP3, O14907): below the threshold
below the threshold | 4.5 | below the threshold | below the threshold | below the threshold | 4.65 | 4.09 | 3.99 | 4.3 | below the threshold | below the threshold | 3.53 | 5.58 | 3.8 | 4.72 | 4.34 | 3.86 | below the threshold | below the threshold | 4.14 | HYPASPDSWV [CTNND2, Q9UQB3] | pKd (PICK1, Q9NRD5): 4.17; pKd (RADIL, Q96JH8): 5.02; pKd (SNTB1, Q13884): 4.23; pKd (TJP1_2, Q07157): 4.19; pKd (TJP2_1, Q9UDY2): 4.37; pKd (TX1BP3, O14907): 5.15
below the threshold | 3.92 | below the threshold | below the threshold | 4.83 | below the threshold | below the threshold | below the threshold | below the threshold | below the threshold | below the threshold | below the threshold | 3.67 | 4.07 | 4.57 | 4.04 | below the threshold | below the threshold | below the threshold | below the threshold | VCMGDHWFDV [PRKN, O60260] | pKd (PICK1, Q9NRD5): below the threshold; pKd (RADIL, Q96JH8): 4.44; pKd (SNTB1, Q13884): below the threshold; pKd (TJP1_2, Q07157): below the threshold; pKd (TJP2_1, Q9UDY2): below the threshold; pKd (TX1BP3, O14907): 3.77
